Test results as given in patent US20240335558A1, “ISOLATED POLYPEPTIDE AND USE THEREOF” (GLYCO-THERAPY BIOTECHNOLOGY CO., LTD., priority 2021, published 2024).

B1: HpFT-0HR: HpFT variant: catalytically active domain and C-terminus fused His tag, no heptapeptide repeat (protein)
chain: MFQPLLDAFIESASIEKMVSKSPPPPLKIAVANWWGDEEIKEFKKSVLYFILSQRYAITLHQNPNESSDLVFSNPLGAARKILSYQNTKRVFYTGENESPNFNLFDYAIGFDELDFNDRYLRMPLYYAHLHYEAELVNDTTAPYKLKDNSLYALKKPSHHFKENHPNLCAVVNDESDLLKRGFASFVASNANAPMRNAFYDALNSIEPVTGGGSVRNTLGYKVGNKSEFLSQYKFNLCFENSQGYGYVTEKILDAYFSHTIPIYWGSPSVAKDFNPKSFVNVHDFNNFDEAIDYIKYLHTHPNAYLDMLYENPLNTLDGKAYFYQDLSFKKILDFFKTILENDTIYHNNPFIFYRDLHEPLISILEHHHHHH
modifications: Catalytically active domain of Helicobacter pylori Alpha-(1,3)-fucosyltransferase (GenBank No.AAD07710.1) with a C-terminal His tag
B2: HpFT-1HR: H. pylori α-1,3-fucosyltransferase variant: catalytically active domain, a heptapeptide repeat sequence and C-terminus fused His tag (protein)
chain: MFQPLLDAFIESASIEKMVSKSPPPPLKIAVANWWGDEEIKEFKKSVLYFILSQRYAITLHQNPNESSDLVFSNPLGAARKILSYQNTKRVFYTGENESPNFNLFDYAIGFDELDFNDRYLRMPLYYAHLHYEAELVNDTTAPYKLKDNSLYALKKPSHHFKENHPNLCAVVNDESDLLKRGFASFVASNANAPMRNAFYDALNSIEPVTGGGSVRNTLGYKVGNKSEFLSQYKFNLCFENSQGYGYVTEKILDAYFSHTIPIYWGSPSVAKDFNPKSFVNVHDFNNFDEAIDYIKYLHTHPNAYLDMLYENPLNTLDGKAYFYQDLSFKKILDFFKTILENDTIYHNNPFIFYRDLHEPLISIDDLRVNYLEHHHHHH
modifications: Catalytically active domain of Helicobacter pylori Alpha-(1,3)-fucosyltransferase (GenBank No.AAD07710.1) with 1 heptapeptide repeat and a C-terminal His tag
B3: HpFT-3HR: H. pylori α-1,3-fucosyltransferase variant: catalytically active domain, three heptapeptide repeat sequences and C-terminus fused His tag (protein)
chain: MFQPLLDAFIESASIEKMVSKSPPPPLKIAVANWWGDEEIKEFKKSVLYFILSQRYAITLHQNPNESSDLVFSNPLGAARKILSYQNTKRVFYTGENESPNFNLFDYAIGFDELDFNDRYLRMPLYYAHLHYEAELVNDTTAPYKLKDNSLYALKKPSHHFKENHPNLCAVVNDESDLLKRGFASFVASNANAPMRNAFYDALNSIEPVTGGGSVRNTLGYKVGNKSEFLSQYKFNLCFENSQGYGYVTEKILDAYFSHTIPIYWGSPSVAKDFNPKSFVNVHDFNNFDEAIDYIKYLHTHPNAYLDMLYENPLNTLDGKAYFYQDLSFKKILDFFKTILENDTIYHNNPFIFYRDLHEPLISIDDLRVNYDDLRVNYDDLRVNYLEHHHHHH
modifications: Catalytically active domain of Helicobacter pylori Alpha-(1,3)-fucosyltransferase (GenBank No.AAD07710.1) with 3 heptapeptide repeats and a C-terminal His tag
B4: HpFT-6HR: HpFT variant: catalytically active domain, six heptapeptide repeat sequences and C-terminus fused His tag (protein)
chain: MFQPLLDAFIESASIEKMVSKSPPPPLKIAVANWWGDEEIKEFKKSVLYFILSQRYAITLHQNPNESSDLVFSNPLGAARKILSYQNTKRVFYTGENESPNFNLFDYAIGFDELDFNDRYLRMPLYYAHLHYEAELVNDTTAPYKLKDNSLYALKKPSHHFKENHPNLCAVVNDESDLLKRGFASFVASNANAPMRNAFYDALNSIEPVTGGGSVRNTLGYKVGNKSEFLSQYKFNLCFENSQGYGYVTEKILDAYFSHTIPIYWGSPSVAKDFNPKSFVNVHDFNNFDEAIDYIKYLHTHPNAYLDMLYENPLNTLDGKAYFYQDLSFKKILDFFKTILENDTIYHNNPFIFYRDLHEPLISIDDLRVNYDDLRVNYDDLRVNYDDLRVNYDDLRVNYDDLRVNYLEHHHHHH
modifications: Catalytically active domain of Helicobacter pylori Alpha-(1,3)-fucosyltransferase (GenBank No.AAD07710.1) with 6 heptapeptide repeats and a C-terminal His tag

Experiments:
Type in all cases: biochemical
[1] = system: Trastuzumab-(Fucα1,6)(GalNAzβ1,4)GlcNAc; assay: Transfer of GDP-FAmP4Biotin to Trastuzumab-(Fucα1,6)(GalNAzβ1,4)GlcNAc by different HpFTs; settings: donor GDP-FAmP4Biotin 1 mM, enzyme 0.5 mg/mL, 30° C., 3 h; FIG. 3
[2] = system: Trastuzumab-(Fucα1,6)(Galβ1,4)GlcNAc; assay: Transfer of GDP-FAmP4Biotin to Trastuzumab-(Fucα1,6)(Galβ1,4)GlcNAc by different HpFTs; settings: donor GDP-FAmP4Biotin 1 mM, enzyme 0.5 mg/mL, 30° C., 1 h; FIG. 2
Experimental: To 40 mM Tris-HCl (pH 7.5) buffer were added Trastuzumab-(Fucα1,6)(Galβ1,4)GlcNAc (2 mg/mL final), GDP-FAmP4Biotin (1 mM final), MgCl2 (20 mM final), and different HpFT enzymes (HpFT-4HR, HpFT-4HR(M4), HpFT-4HR(M7), HpFT-6HR, HpFT-3HR, HpFT-2HR, HpFT-1HR or HpFT-0HR) (0.5 mg/mL final) in sequence, and the resulting mixed solution was allowed to react at 30° C. for 1 h. Three parallels were set up for each group. After the reaction time point was reached, to the reaction solution was added 10 mM LacNA, and the reaction was terminated by a desalting column (Zeba™ Spin Desalting Columns/2 ml/40K, Thermo Fisher Scientific), and finally mass spectrometry was carried out and % of conversion was calculated. % of conversion=(MAR0 peak intensity*0+MAR1peak intensity*1+MAR2 peak intensity*2)/2* (MAR0 peak intensity+MAR1 peak intensity+MAR2 peak intensity)*100%.

[3] = system: Trastuzumab-(GalNAzβ1,4)GlcNAc; assay: Transfer of GDP-FAmP4Biotin to Trastuzumab-(GalNAzβ1,4)GlcNAc by different HpFTs; settings: donor GDP-FAmP4Biotin 1 mM, enzyme 0.5 mg/mL, 30° C., 3 h; FIG. 4
Trastuzumab-G2F = assay: Transfer of GDP-FAmP4Biotin to Trastuzumab-G2F by different HpFTs (% of conversion by MS); settings: donor GDP-FAmP4Biotin 1 mM, enzyme 0.5 mg/mL, 30° C., 3 h; FIG. 1
Experimental: To 40 mM Tris-HCl (pH 7.5) buffer were added Trastuzumab-G2F (2 mg/mL final), GDP-FAmP4Biotin (1 mM final), MgCl2 (20 mM final), and different HpFT enzymes (HpFT-4HR, HpFT-4HR(M4), HpFT-4HR(M7), HpFT-6HR, HpFT-3HR, HpFT-2HR, HpFT-1HR, or HpFT-0HR) (0.5 mg/mL final) in sequence, and the resulting mixed solution was allowed to react at 30° C. for 3 h. Three parallels were set up for each group. After the reaction time point was reached, to the reaction solution was added 10 mM LacNAc (N-acetyl-D-lactosamine), and the reaction was terminated by a desalting column (Zeba™ Spin Desalting Columns/2 ml/40K, Thermo Fisher Scientific), and finally mass spectrometry was carried out and % of conversion was calculated. % of conversion=(MAR0 peak intensity*0+MAR1peak intensity*1+MAR2 peak intensity*2+MAR3 peak intensity*3+MAR4 peak intensity*4)/4* (MAR0 peak intensity+MAR1 peak intensity+MAR2 peak intensity+MAR3 peak intensity+MAR4 peak intensity)*100%.

Molecule	catalytic activity as compared with HpFT-4HR (% of conversion) [1]	catalytic activity as compared with HpFT-4HR (% of conversion) [2]	catalytic activity as compared with HpFT-4HR (% of conversion) [3]	catalytic activity among the HpFT variants [1]	catalytic activity among the HpFT variants [3]	catalytic activity as compared with HpFT-4HR (% of conversion) (Trastuzumab-G2F)
B1	significantly decreased activity	significantly decreased activity	significantly decreased activity			
B2	significantly improved catalytic activity	significantly improved catalytic activity	significantly improved catalytic activity	relatively high catalytic activity	relatively high catalytic activity	significantly improved catalytic activity
B3	significantly improved catalytic activity	significantly improved catalytic activity	significantly improved catalytic activity			significantly improved catalytic activity
B4	little activity change	no obvious activity change	little activity change			
